Assay results from publication PMC6396743, “Two membrane-bound transcription factors regulate expression of various type-IV-pili surface structures in Sulfolobus acidocaldarius”.

T1: ArnR1 (Sulfolobus acidocaldarius, UniProt Q4J9L2 1-269)
T1 sequence: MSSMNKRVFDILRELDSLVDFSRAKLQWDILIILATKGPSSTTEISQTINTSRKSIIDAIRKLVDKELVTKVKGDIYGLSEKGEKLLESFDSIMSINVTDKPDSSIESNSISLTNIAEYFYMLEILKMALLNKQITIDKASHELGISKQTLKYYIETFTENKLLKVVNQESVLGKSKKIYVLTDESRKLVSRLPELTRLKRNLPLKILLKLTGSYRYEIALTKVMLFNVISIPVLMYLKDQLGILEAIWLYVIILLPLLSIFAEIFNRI

B1: pSaci_2122 (dsDNA)
DNA 1: ATAATTATTACTCAGCGTTTATAACGTTTAACATGTTAAAA
DNA 2: TTTTAACATGTTAAACGTTATAAACGCTGAGTAATAATTAT
B2: pupsX (dsDNA)
DNA 1: TCTCCCATATTACTATTGCCTATCTCGTTAATAGTATTTTC
DNA 2: GAAAATACTATTAACGAGATAGGCAATAGTAATATGGGAGA
B3: paapF (dsDNA)
DNA 1: GTCTAAAGCCATAAAGATGAGCTTATTTTCATAGATTTAAGT
DNA 2: ACTTAAATCTATGAAAATAAGCTCATCTTTATGGCTTTAGAC
B4: pflaB41 (dsDNA)
DNA 1: ACGTCGATCAGCAGTCGAAAAATTGTGATTTTTGGTCGAAG
DNA 2: CTTCGACCAAAAATCACAATTTTTCGACTGCTGATCGACGT
B5: pflaB ArnR box-1 (dsDNA)
DNA 1: ATTGTGATTTTTGGTCGAAG
DNA 2: CTTCGACCAAAAATCACAAT
B6: pflaB ArnR box-2 (dsDNA)
DNA 1: AACGTCGATCAGCAGTCGAA
DNA 2: TTTCGACTGCTGATCGACGTT

Biological target: T1, ArnR1
Assay: MST; MST: 2.5 nM labeled dsDNA, 0.156-18 uM protein, 24 C, 10 min incubation; DNA annealed in 20 mM Tris/HCl pH 8, 200 mM NaCl, 0.05% DDM; protein in 20 mM Tris/HCl
Conditions: protein: recombinant, tags: N-terminal His10
[1] = label: 5' Alexa Fluor 647, blunt

Row | Binder | binding result [1] | also measured
1 | B1 | no binding | –
2 | B2 | – | binding result (label: Alexa Fluor 647, blunt): no binding
3 | B3 | no binding | –
4 | B4 | – | Kd [1]: 3.31 µM
5 | B5 | no binding | –
6 | B6 | – | binding result (label: 5' Alexa Fluor 647, 5' overhang 1 nt on strand 2 as printed): no binding
